Test results: paper PMC8339350
Several values for one entry are separate records, joined by “and”; a condition that tells them apart may be missing. Equal values may be shown once.

How the values were obtained:
AKAP18 (Homo sapiens) = AKAP18 (Homo sapiens) (UniProt Q9P0M2); details: cited from earlier work
[1] = molecular target: full-length SPA17 (sperm autoantigenic protein 17), human (human) (UniProt Q15506); assay: SEC-MALS; Wyatt system on Superdex 200 Increase 10/300; 20 mM Tris, pH 8, 200 mM NaCl, 5 mM DTT; 0.5 ml/min
GST-AKAP18α (human) = assay: BLI; Octet RED96; anti-GST probes loaded with GST protein at 200 nM; room temperature; 50 mM Tris HCl, 200 mM NaCl, 5 mM DTT, 0.1% BSA, pH 8.0; steady-state analysis for KD

RIIα, sequence (P13861 2-404): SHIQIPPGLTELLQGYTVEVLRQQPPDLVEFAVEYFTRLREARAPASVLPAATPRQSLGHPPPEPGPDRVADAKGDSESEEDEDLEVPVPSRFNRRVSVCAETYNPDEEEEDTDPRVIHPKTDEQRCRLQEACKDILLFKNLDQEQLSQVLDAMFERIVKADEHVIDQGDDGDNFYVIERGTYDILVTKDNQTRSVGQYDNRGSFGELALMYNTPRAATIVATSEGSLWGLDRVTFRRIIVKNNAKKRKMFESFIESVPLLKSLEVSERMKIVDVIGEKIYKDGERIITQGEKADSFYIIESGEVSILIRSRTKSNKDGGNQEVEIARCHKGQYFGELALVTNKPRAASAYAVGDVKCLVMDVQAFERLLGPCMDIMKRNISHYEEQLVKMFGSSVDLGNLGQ

RIIα (from UniProt P13861)
Kd (AKAP18 (Homo sapiens)): 31 nM

full-length SPA17 (sperm autoantigenic protein 17), human (from UniProt Q15506 1-151) (natural protein)
stoichiometry N [1]: 4 and 2

SPA17 1 to 75-ROPN1L 1 to 75 heterodimer (from UniProt Q15506 1-75; Q96C74 1-75) (complex)
Kd (GST-AKAP18α (human)): 82 nM
